B1: α-CD28 + β-41BB (Linker GGS) (TCR)
TCR alpha: KQEVTQIPAALSVPEGENLVLNCSFTDSAIYNLQWFRQDPGKGLTSLLLIQSSQREQTSGRLNASLDKSSGRSTLYIAASQPGDSATYLCAVRPLYGGSYIPTFGRGTSLIVHPYIQNPDPAVYQLRDSKSSDKSVCLFTDFDSQTNVSQSKDSDVYITDKCVLDMRSMDFKSNSAVAWSNKSDFACANAFNNSIIPEDTFFPSPESSCDVKLVEKSFETDTNLNFQNLSVIGFRILLLKVAGFNLLMTLRLWSSGGSRSKRSRLLHSDYMNMTPRRPGPTRKHYQPYAPPRDFAAYRS
TCR beta: NAGVTQTPKFQVLKTGQSMTLQCAQDMNHEYMSWYRQDPGMGLRLIHYSVGAGITDQGEVPNGYNVSRSTTEDFPLRLLSAAPSQTSVYFCASSYVGNTGELFFGEGSRLTVLEDLKNVFPPEVAVFEPSEAEISHTQKATLVCLATGFYPDHVELSWWVNGKEVHSGVCTDPQPLKEQPALNDSRYCLSSRLRVSATFWQNPRNHFRCQVQFYGLSENDEWTQDRAKPVTQIVSAEAWGRADCGFTSESYQQGVLSA
B2: α-CD28 + β (Linker GGS) (TCR)
TCR alpha: B1 TCR alpha
TCR beta: B1 TCR beta
B3: α-CD28 + β-CD28 (Linker GGS) (TCR)
TCR alpha: B1 TCR alpha
TCR beta: NAGVTQTPKFQVLKTGQSMTLQCAQDMNHEYMSWYRQDPGMGLRLIHYSVGAGITDQGEVPNGYNVSRSTTEDFPLRLLSAAPSQTSVYFCASSYVGNTGELFFGEGSRLTVLEDLKNVFPPEVAVFEPSEAEISHTQKATLVCLATGFYPDHVELSWWVNGKEVHSGVCTDPQPLKEQPALNDSRYCLSSRLRVSATFWQNPRNHFRCQVQFYGLSENDEWTQDRAKPVTQIVSAEAWGRADCGFTSESYQQGVLSATILYEILLGKATLYAVLVSALVLMAMVKRKDSRGGGSRSKRSRLLHSDYMNMTPRRPGPTRKHYQPYAPPRDFAAYRS

Experimental findings from patent US20220389075A1 are described below.

In the experiment the target is Alexa Fluor 647-labeled NY-ESO-1-MHC tetramer. The experiment in a line: flow cytometry of transfected Jurkat NFAT-luciferase cells stained with Alexa Fluor 647-labeled NY-ESO-1-MHC tetramer; x axis Alexa 647-A; Empty Vector gate 0.46. On the technique in general: In flow cytometry, cells or beads pass a laser one at a time.
B1 had an NYESO+ of 52.3%.
In the case of B2 it was 64.5%.
With B3 the figure was 53.6%.
